Reference: article PMC4271523, “Differential Effects of a Mutation on the Normal and Promiscuous Activities of Orthologs: Implications for Natural and Directed Evolution” (Molecular Biology and Evolution, 2014)
Numbering of substitutions follows the chain as printed. Names may count otherwise.

Columns and labels:
Test in all cases: purified protein
[1] = substrate: N[C@@H](CCC=O)C(=O)O; assay type: biochemical, Saccharophagus degradans; conditions: 1 mM NADP+, 100 mM potassium phosphate pH 7.6, room temperature, reverse (dehydrogenase) direction, apparent KM corrected to free GSA aldehyde/hydrate
[2] = substrate: CC(=O)N[C@@H](CCC=O)C(=O)O; assay type: biochemical, Saccharophagus degradans; conditions: 1 mM NADP+, 100 mM potassium phosphate pH 7.6, room temperature, reverse (dehydrogenase) direction, promiscuous substrate, apparent KM, NAGSA in equilibrium with its hydrate
[3] = substrate: N[C@@H](CCC=O)C(=O)O; assay type: biochemical, Methanosarcina acetivorans; conditions: 1 mM NADP+, 100 mM potassium phosphate pH 7.6, room temperature, reverse (dehydrogenase) direction, apparent KM corrected to free GSA aldehyde/hydrate
[4] = substrate: N[C@@H](CCC=O)C(=O)O; assay type: biochemical, Pseudomonas putida; conditions: 1 mM NADP+, 100 mM potassium phosphate pH 7.6, room temperature, reverse (dehydrogenase) direction, apparent KM corrected to free GSA aldehyde/hydrate
[5] = substrate: CC(=O)N[C@@H](CCC=O)C(=O)O; assay type: biochemical, Pseudomonas putida; conditions: 1 mM NADP+, 100 mM potassium phosphate pH 7.6, room temperature, reverse (dehydrogenase) direction, promiscuous substrate, apparent KM, NAGSA in equilibrium with its hydrate
[6] = substrate: N[C@@H](CCC=O)C(=O)O; conditions: 1 mM NADP+, 100 mM potassium phosphate pH 7.6, room temperature, reverse (dehydrogenase) direction, apparent KM corrected to free GSA aldehyde/hydrate
[7] = substrate: CC(=O)N[C@@H](CCC=O)C(=O)O; conditions: 1 mM NADP+, 100 mM potassium phosphate pH 7.6, room temperature, reverse (dehydrogenase) direction, promiscuous substrate, apparent KM, NAGSA in equilibrium with its hydrate
[8] = substrate: N[C@@H](CCC=O)C(=O)O; assay type: biochemical, Aliivibrio fischeri; conditions: 1 mM NADP+, 100 mM potassium phosphate pH 7.6, room temperature, reverse (dehydrogenase) direction, apparent KM corrected to free GSA aldehyde/hydrate
[9] = substrate: CC(=O)N[C@@H](CCC=O)C(=O)O; assay type: biochemical, Aliivibrio fischeri; conditions: 1 mM NADP+, 100 mM potassium phosphate pH 7.6, room temperature, reverse (dehydrogenase) direction, promiscuous substrate, apparent KM, NAGSA in equilibrium with its hydrate
[10] = substrate: N[C@@H](CCC=O)C(=O)O; assay type: biochemical, Bacillus subtilis; conditions: 1 mM NADP+, 100 mM potassium phosphate pH 7.6, room temperature, reverse (dehydrogenase) direction, apparent KM corrected to free GSA aldehyde/hydrate
[11] = substrate: CC(=O)N[C@@H](CCC=O)C(=O)O; assay type: biochemical, Bacillus subtilis; conditions: 1 mM NADP+, 100 mM potassium phosphate pH 7.6, room temperature, reverse (dehydrogenase) direction, promiscuous substrate, apparent KM, NAGSA in equilibrium with its hydrate
[12] = substrate: N[C@@H](CCC=O)C(=O)O; assay type: biochemical, Escherichia coli; conditions: 1 mM NADP+, 100 mM potassium phosphate pH 7.6, room temperature, reverse (dehydrogenase) direction, apparent KM corrected to free GSA aldehyde/hydrate
[13] = substrate: CC(=O)N[C@@H](CCC=O)C(=O)O; assay type: biochemical, Escherichia coli; conditions: 1 mM NADP+, 100 mM potassium phosphate pH 7.6, room temperature, reverse (dehydrogenase) direction, promiscuous substrate, apparent KM, NAGSA in equilibrium with its hydrate

B1: Saccharophagus degradans ProA (Saccharophagus degradans 2-40) (protein)
chain: MTVQDYMLTLGKQARAASRQMASADTGKKNAALLAIADAINSARDTIAAENARDMEAGRANGLDAALLDRLELTPERIDGMIEGLNQVAALPDPCGEITDLKYRPSGIQLGKKRTPLGVVGIIYESRPNVTVDAASLCLKSGNAAILRGGSEAIHSNKAVAVCIAAGLKAAGLPETAVQVVETTDRAAVGELITMTKYVDVVVPRGGKSLIERISADARVSVIKHLDGICHVYVDKTANLDKAFNIVINSKTHRYGVCNAMETMLVDEAIAADFLPRAAKEFAARGVELRGCEKTVALLTASDIPVVAALEEDWDTEYLAPILSIKLVANMDEAIEHINNHGSHHTDALVSENYTLARKFLTEVDSSSVMINASTRFADGFEYGLGAEIGISTDKIHARGPVGLEGLTSQKWIVFGDGHIRN
notes: His-tagged, pTrcHisB, expressed in delta-argC delta-proA E. coli BW25113 (DE3)
- Km [1]: 85 ± 13 µM
- kcat [1]: 0.4 ± 0.04 s⁻¹
- kcat/Km [1]: 4700 ± 400 M⁻¹ s⁻¹
- Km [2]: 820 ± 160 µM
- kcat [2]: 3e-05 ± 3e-06 s⁻¹
- kcat/Km [2]: 0.037 ± 0.004 M⁻¹ s⁻¹

B2: Methanosarcina acetivorans ProA (Methanosarcina acetivorans C2A) (protein)
chain: MAEDIETKVVKAKKASIELSSVSEEVKNRALEAMAESLDRERKAILEANSKDLEYASELKKVGKLTQALVDRLKVTDSKIDGMIAGIMDVIKLKDPVGETLSTLELDNDLILYQISCPIGLIGVIFESRPDVVPQVMSLCLKSGNATIFKGGSEARESNRTIFEILVKAIESTEGMPKGAFQLMETREEIMSLLSLDAYVDLLIPRGSNEFVKFIQDNTKIPVLGHTSGICHIYVDEFADPDTAWKVCFDAKVQYPAVCNAIETLLVNRKIAEAFLPKMAEMYIKAGVELRCDKDSYILLAEKGLSPLSKATEEDWSLEYNDLILSIKLVDTIKEAIAHINTFGSHHTDGIITENASRRKEFIGLVDSSSVMVNASTRFADGYRYGKGAEVGISTNKIHSRGPVGMEGLLIYKYILMGKGQVVADYAGENAKPYTHRKLDLKFADVN
notes: as for B1
- Km [3]: 14 ± 4 µM
- kcat [3]: 0.43 ± 0.03 s⁻¹
- kcat/Km [3]: 25000 ± 11000 M⁻¹ s⁻¹

B3: Methanosarcina acetivorans ProA (Methanosarcina acetivorans C2A; E390A) (protein)
chain: B2 chain with E390A
notes: as for B1
- Km [3]: 56 ± 28 µM
- kcat [3]: 0.0018 ± 0.0005 s⁻¹
- kcat/Km [3]: 32 ± 15 M⁻¹ s⁻¹

B4: Pseudomonas putida ProA (Pseudomonas putida KT2440) (protein)
chain: MTESVLDYMTRLGRAAREASRVIGRASTAQKNRALQAAADALDAARAELTAANELDLAAGRASGLEPALLDRLALTPARIDGMITGLRQVASLPDPVGAIRDMSYRPSGIQVGKMRTPLGVIGIIYESRPNVTIDAASLCLKSGNATILRGGSEAIHSNRAIATCIQRGLAEAGLPAAVVQVVETTDREAVGALISMPEFVDVIVPRGGRGLIERISRDARVPVIKHLDGICHIYVSQHADLDKAWNVAFNAKTYRYGICGAMETLLVDQQVAERFLPEMARRFVEKGVELRGCERTQAIISAKPATEADWHTEYLDAILSIRVVDGLNQAIEHINHYGSHHTDSIISEHQGEARQFMAEVDSASVMLNTPTCFADGFEYGLGAEIGISTDKLHARGPVGLEGLTCEKYVVIGDGQLRGQGSC
notes: as for B1
- Km [4]: 140 ± 90 µM
- kcat [4]: 0.74 ± 0.23 s⁻¹
- kcat/Km [4]: 6100 ± 1700 M⁻¹ s⁻¹
- Km [5]: 5200 ± 1900 µM
- kcat [5]: 0.001 ± 0.0003 s⁻¹
- kcat/Km [5]: 0.15 ± 0.055 M⁻¹ s⁻¹

B5: Salmonella enterica ProA (Salmonella enterica subsp. enterica serovar Typhimurium str. LT2) (protein)
chain: MLEQMGIAAKAASYKLALLSSGEKNRVLEKIADELEAQMESILSANVQDVEQARANGLSEAMLDRLALTPARLKAIADDVRQVCNLADPVGQVIDGGLLDSGLRLERRRVPLGVVGVIYEARPNVTVDVASLCLKTGNAVILRGGKETYRTNAATVRVIQKALKACGLPEAAVQAIDNPDRSLVNEMLRMDKYIDMLIPRGGAGLHKLCREQSTIPVITGGIGVCHIFVDSSADIAPALKIIVNAKTQRPSTCNTVETLLVHQDIAERFLPALSKQMAESGVTLHGDETVMQVLHGPAKLVPLKPEELDNEFLSLDLNVVVVENMDGAIAHIREHGTQHSDAILTCDMHNAARFVNEVDSAAVYVNASTRFTDGGQFGLGAEVAVSTQKLHARGPMGLEALTTYKWIGFGDGTIRA
- Km [6]: 54 ± 12 µM
- kcat [6]: 3.7 ± 0.5 s⁻¹
- kcat/Km [6]: 69000 ± 7000 M⁻¹ s⁻¹
- Km [7]: 2600 ± 100 µM

B6: Allivibrio fischeri ProA (Aliivibrio fischeri ES114) (protein)
chain: MNLTTMGQAAKAAAFDLAVAPTAQKNKALAIIADELEANKDAILAANEKDIKAAVEAGISEAMQDRLLLTEERLVGIANDVRNVINLNDPVGSEIDSKVLENGMSLSRRRVPIGVIGVIYEARPNVTIDIASLCLKTGNASILRGGKETFFSNMELVKVIQVALEKAGLPAASVQYIEKPDRELVSQLLTMDDYVDMIIPRGGAGLHKMCKENSSIPVIIGGFGISHAFVDESADLERALVVVDNSKAQRPSACNALDTLLVHEAVAPQFLALLANNMAGRVELVAEPKAYGLLKEFEGVSLREAQEGDFDTEWLSYTLGVKVVADVNEAAAHMQKHNASHSDTILTNNIESAEKFINTAGSAAVYVNASTRFTDGAQFGLGAEVAVSTQKLHARGPMGLEELTSYKWVGKADYLIRS
notes: as for B1
- Km [8]: 46 ± 11 µM
- kcat [8]: 1.9 ± 0.2 s⁻¹
- kcat/Km [8]: 42000 ± 6000 M⁻¹ s⁻¹

B7: Allivibrio fischeri ProA (Aliivibrio fischeri ES114; E384A) (protein)
chain: B6 chain with E384A
notes: as for B1
- Km [9]: 65 ± 23 µM

B8: Bacillus subtilis ProA (Bacillus subtilis subsp. subtilis str. 168) (protein)
chain: MSEVSVKAKLAKEAAAEMIMKTTAEKDEALSLIANGLRKELDFLLAENAKDIVNGKENGLTPDIIDRLSLDEKRIRDIADAVELLIDLADPIGDSLETIEKENGLFIEKIRVPLGVVGMIYEARPNVTVDAATLCLKTGNAVVLRGSSSAIHSNKALVSVIYRALEQSALPIHAVQLIEDTSRETAKELFTLNDGLDVLIPRGGKKLIDLVVRESTVPVLETGAGNCHIFIDETAKPQMAEKVVVNAKTQRPSVCNAIESLLIHKAWARQHGKELLDQLENAGVEIRGDELVCELHPSSKQASKEDWETEFLAPVLSVKTVENVQEAVKHIQQYGTNHSEAILTENDKNAVYFQTAVDAAAVYHNASTRFTDGFEFGYGAEIGISTQKLHARGPMGLPALTSTKYIIKGTGQIRE
notes: as for B1
- Km [10]: 150 ± 20 µM
- kcat [10]: 1.7 ± 0.2 s⁻¹
- kcat/Km [10]: 11000 ± 1000 M⁻¹ s⁻¹
- Km [11]: 6000 ± 1500 µM
- kcat [11]: 0.0014 ± 0.0003 s⁻¹
- kcat/Km [11]: 0.24 ± 0.015 M⁻¹ s⁻¹

B9: Bacillus subtilis ProA (Bacillus subtilis subsp. subtilis str. 168; E381A) (protein)
chain: B8 chain with E381A
notes: as for B1
- Km [11]: 46 ± 19 µM
- kcat [11]: 0.0028 ± 0.0004 s⁻¹
- kcat/Km [11]: 61 ± 14 M⁻¹ s⁻¹

B10: E. coli ProA (GP reductase) (Escherichia coli K-12) (protein)
chain: MLEQMGIAAKQASYKLAQLSSREKNRVLEKIADELEAQSEIILNANAQDVADARANGLSEAMLDRLALTPARLKGIADDVRQVCNLADPVGQVIDGGVLDSGLRLERRRVPLGVIGVIYEARPNVTVDVASLCLKTGNAVILRGGKETCRTNAATVAVIQDALKSCGLPAGAVQAIDNPDRALVSEMLRMDKYIDMLIPRGGAGLHKLCREQSTIPVITGGIGVCHIYVDESVEIAEALKVIVNAKTQRPSTCNTVETLLVNKNIADSFLPALSKQMAESGVTLHADAAALAQLQAGPAKVVAVKAEEYDDEFLSLDLNVKIVSDLDDAIAHIREHGTQHSDAILTRDMRNAQRFVNEVDSSAVYVNASTRFTDGGQFGLGAEVAVSTQKLHARGPMGLEALTTYKWIGIGDYTIRA
notes: as for B1
- Km [12]: 43 ± 3 µM
- kcat [12]: 5.1 ± 0.2 s⁻¹
- kcat/Km [12]: 120000 ± 10000 M⁻¹ s⁻¹
- Km [13]: 480 ± 30 µM
